From the DeepSol protein solubility set

Assay: soluble on expression in E. coli; label from the status in PepcDB or PDB records

Which “soluble on expression in E. coli” value does the source give for “MSRDRPNKIKLPHRPGYTTYLQTGDLTSTDGEEGVYSLKLITGYTREEPEILDDVLDPSGGSSSSQRSNDPLLPASTNHPEIFDDVLDPSGGSSSSQRSNDPLLPASTFKLSCVDCKKQYNVSKSMKSQARKRKIRQDMEAEDDMLDGTGLHRMALVNVNTTMPQEAKALEELSKKLVISATLTGYDSVPINTPSKSPQVLYFQVKTHAEFDLVQEKMDKNFISQLEIESLVKSNEPFLFPYGRRRHVFTSILLATYLSLCSDEANNIDDWKDLLRNNAIIKKAVEHSDTMQKMKKYLSVDGRTMLNFYKETL” here?
The value was “not soluble”.

Which “soluble on expression in E. coli” value does the source give for “MSFLISFDKSKKHPAHLQLANNLKIALALEYASKNLKPEVDNDNAAMELRNTKEPFLLFDANAILRYVMDDFEGQTSDKYQFALASLQNLLYHKELPQQHVEVLTNKAIENYLVELKEPLTTTDLILFANVYALNSSLVHSKFPELPSKVHNAVALAKKH” here?
The value was “soluble”.

With “MKSQFNQKLEDKFQRNAEQVVSLVKERMQLYENALWSSVAYIDADETDITHTKWLAYSKSLKIDLTYPGINGIGIIYNIQADQLDDYIEKQRVLRPNYAIHPSHNESEYWPITYVEPAAPNKKAIGLDMAFETNRYSSIKKARDTGVAQLTGPITLVQDAKKTPGFLFYTPFYKNGTKPESTEARRDAIDGVTYAPFIMKNLMQGTLAEKNRHVSIQIRDAGDLLFDDHDDESVLDADANPLFTKEQDISLYGRTWSFTIQSNLDFRDESAANQLEHHHHHH” as the sequence, how does the “soluble on expression in E. coli” value read?
Its value is “not soluble”.

Which “soluble on expression in E. coli” value does the source give for “MDFSNRLLLLLEVTELGSFTNVAEQKNLDRSVISKQISRLEEELGVRLLNRTTRSLSLTAAGNEMVNQAKLLRDLLNNTHRLAQNYHSEPRGILRITSSMMFGRQYVQDAISVFQKQYPDVKCELRLEDRVVDIVQEGFDIGFRIGRPKNSSLISRKIARSRLLIVASPDFIQQHGKIETIEKLESLPATIYAAPGLFIDKFTYLDENKVEQQFHLNVAYKVNDVEMVVKSAVAGNTLAVVTAQMIENEIIEGKLIPIMTHLNLEDFGTFFAVYPHRDAPIKTKLFIDVLKSIIGEDSPMWEKNIPDFAKLYGGTK” here?
Its value is “not soluble”.

Which “soluble on expression in E. coli” value does the source give for “MAAAGQEKGYLTQTAAALDKSPSLSPQLAAPIRGRPKKCLVYPHAPKSSRLSRSVLRWLQGLDLSFFPRDINRDFSNGFLIAEIFCIYYPWELELSSFENGTSLKVKLDNWAQLEKFLARKKFKLPKELIHGTIHCKAGVPEILIEEVYTLLTHREIKSIQDDFVNFTDYSYQMRLPLVSRSTVSKSIKDNIRLSELLSNPNMLTNELKAEFLILLHMLQRKLGRKLNPEWFDVKPTVGEVTLNHLPAQASGRRYNLKVKRGRVVPVLPNIGSGGSSHREIHVKQAGQHSYYSAMKPIRNMDKKP” here?
Its value is “soluble”.

Which “soluble on expression in E. coli” value does the source give for “GPGSMSADKVVIIGAGPTGLGAAVRLMELKHANFHLYDGGTVPGGLSRSVLDDKGFLWDMGGHVIFSHYAYFDDVMNLAISDWNTLQRESWVRCSGAWVPYPFQSNIHRLPPEVRDTCLKGIEEAEAARSVAAPEKPQNFAEYVSRHFGEGIAEVFMRPYNFKVWAVPLHLMSTEWVGERVAAVNVERIRENIQLKRDDVGWGPNATFRFPKSGGTGAIYKAVWKMIPEAHKTLGPQCRVTKVNPITKTLTMANGEAVSYDALVSTMPLDDLLLAVAAGVEEDAETASASALKAPRLREIADKMVYSSTHIIGIGVKGCPPPEMRTACWLYFPEDGIPFYRATIFSRYADTNAPEGHWSILLEVSQNVLYKPVNVDTIVEDCIAGLRTVTLLRPEDEIVSRWHHMEKKGYPIPFVGRNELLEEVQPVLRDKYQIYSRGRFGAWRYEVANQDHSLMQGVEAVGHIFYGTDEDTVHKPEKVNTRRGEMRCTWSSTAS” here?
The value was “soluble”.

With “MSLVEQLVKELSKGLNTRDYPEGFFKEHLAFRLKINKLEPVKHPHIPDINSLLGVEKQKEVLLRNTAQFVKGLPANDVLLWGARGTGKSSLVKALLGVFGKEGLRIVQVTKHEIPELADLYEVLRDKEEKFILFFDDLTFEPHEDAFRLLKSIMEGDVEERPQNVLFTQLQTGDTSLRIWKKRINFRRKHSTKSFL” as the sequence, how does the “soluble on expression in E. coli” value read?
The value was “not soluble”.

With “MGSDKIHHHHHHMSNNHKDSTINLYNHTASDWIRGEPSSLSDFTARPSVLELCEPVSGLRVVDIGCGEGYCSRELHRRGAAQVYGIDLSQGMIEAAKLQEVEHPLSISYEVGCATNLKRFDDSEIDLVVAVFLFNYLTISQTQECMAEVARILRPGGRFVFSVPHPSFPYMREAAYPFYFQVEGAGYFSNRDQQFPGRIWKRDGSWLNVQLIHKTLEDYFNALRIAGFNTMPILQELRVTSEHIAVDKSFFSPLLDQPLHLALQILR” as the sequence, how does the “soluble on expression in E. coli” value read?
Its value is “not soluble”.

For “MGHHHHHHGGHMSLTDVNVKIDIMHPQPIVGLGNPAIFVQGSTQNYKEYTSLETLAKDFATTTTVYKKAEIIWKQENKPQTIAVVTFVADTPTSPEQPDSLIAGSGIIAAATSYFYNDWHFALLANFVEADALALSNLIEENEFKFLVIQTATVDELTVFTGNNLTIGLVHPLEEFLDAALIGNTASLTVGSVTWKFRHNLVGITPNTLTTSQLQAIEKANAIAYVSKAGIPQTSEGKTMSGEFIDALHGDHWVKSNIETNVQRLLSTTDKLTFDSNGIALLDTTVANVLETAFNNGIVDIVDETGVGNYSVTALGRQDLNPDDIAARNYKGLSFKYKRSGAIHTVDVTGTIEVEGGS”, which “soluble on expression in E. coli” value is on record?
Its value is “soluble”.

For “AHHHHHHGSAVRLKTPLTWEDIRDLEIGDRVLLSGIVYTARDLAHRRFLEEGFPFNPEGAVIYHCGPLIKNGIVVSAGPTTSARMEKYLDFLFNRGVRGVIGKGGMNHEKFKGRAVYFSYPGGAGSLAREFIVKVRDVYWEDLGMTDAVWELEVRDMPLLVSIDSKGRSLYRKN”, which “soluble on expression in E. coli” value is on record?
The value was “soluble”.

Which “soluble on expression in E. coli” value does the source give for “MSLDNKNKSEVQAQETVQVSYKEKNRESSLASALDVLSRFGGFNFLESTVDGVQNLNPERKARKKIFLTDEQKQEEREVLKNKIDMWIDLLNSSSAVTEMIATSKAKSEAAASHLAKSQLVAVQSVRDMEQAYRGVMLFYKNTEADKVNNVTIVNASKEQLTDLDNPRFIDFVARELKQNYDKLDLRQNYSLLAIPGYLGSNKVLEKWAKIAYENKVMLYTDFADLDKPEDVVELFSSSNMASGEAFKSNTCMTCNWLVGRAGYREIGEEEDLHVSPSIALMGKVYTTLMSQVTAGKKYGGINEIDAVVFPLKKSEISQLEKMGLIPMVNEYGKVMAFSAKTLFNGDNLGLQTYSVVRVFDYITKVLFDFLNRRSFENWSSKTERDLRGQIVQYLDSVQGADRLIEKFKIIRFEQDQKQKDRIYLDIHMTPFFPAKSFVIKLDGTKGDDGTNWNTNYEEGHHHHHH” here?
Its value is “not soluble”.

Which “soluble on expression in E. coli” value does the source give for “TVSVLLPFVATEFYRRLVEGIEGVLLEQRYDLALFPILSLARLKRYLENTTLAYLTDGLILASYDLTERFEEGRLPTERPVVLVDAQNPRYDSVYLDNRLGGRLAGAYLARFPGPIFAIAVEEEPDRAFRRTVFAERMAGFQEALKEAGRPFSPDRLYITRHSQEGGRLALRHFLEKASPPLNVFAGADQVALGVLEEAVRLGLTPGRDVRVLGFDGHPFAEEAGLSTIAQPVEAMGARAAQLLLERMRGYQGPPREVRFEPVLVERASTGTPPAA” here?
The value was “soluble”.

Which “soluble on expression in E. coli” value does the source give for “MSAAADRLNLTSGHLNAGRKRSSSSVSLKAAEKPFKVTVIGSGNWGTTIAKVVAENCKGYPEVFAPIVQMWVFEEEINGEKLTEIINTRHQNVKYLPGITLPDNLVANPDLIDSVKDVDIIVFNIPHQFLPRICSQLKGHVDSHVRAISCLKGFEVGAKGVQLLSSYITEELGIQCGALSGANIATEVAQEHWSETTVAYHIPKDFRGEGKDVDHKVLKALFHRPYFHVSVIEDVAGISICGALKNVVALGCGFVEGLGWGNNASAAIQRVGLGEIIRFGQMFFPESREETYYQESAGVADLITTCAGGRNVKVARLMATSGKDAWECEKELLNGQSAQGLITCKEVHEWLETCGSVEDFPLFEAVYQIVYNNYPMKNLPDMIEELDLHED” here?
Its value is “soluble”.

For “GPGSMDSSAGALPATAHSSSNGAASIENVFAGLAWVRDLTDASLAAERVHNAFMQVVFSFVPEYDQDDDDDSATHRFVTAAERQKEAERDRRLREEARRELENLRNEPLSDAGDSGQRSDDEEDQRSEEANLADFETNEFMHWIEAGASDRFAAPRHEIDEKGLRDDPRVQVGADGAWQDYGVRSECNMSGATQGGARGAASAPRW”, which “soluble on expression in E. coli” value is on record?
Its value is “soluble”.

For “MGHHHHHHSHMVPGSEGPARAGSVVADVVFVIEGTANLGPYFEGLRKHYLLPAIEYFNGGPPAETDFGGDYGGTQYSLVVFNTVDCAPESYVQCHAPTSSAYEFVTWLDGIKFMGGGGESCSLIAEGLSTALQLFDDFKKMREQIGQTHRVCLLICNSPPYLLPAVESTTYSGCTTENLVQQIGERGIHFSIVSPRKLPAL”, which “soluble on expression in E. coli” value is on record?
Its value is “not soluble”.
